{"source": "the RNAGym collection of RNA variant scans (doi:10.1093/nar/gkz1192)", "parents": {"B1": {"name": "CPEB3 Ribozyme (parent)", "chain": "UAACAGGGGGCCACAGCAGAAGCGUUCACGUCGCAGCCCCUGUCAGAUUCUGGUGAAUCUGCGAAUUCUGCUGUAUAUCUC"}}}
{"variants_of": "B1", "test": "self-cleavage, relative activity (ratio to wild type); higher = more cleavage; in vitro, sequencing", "summary_of_the_method": "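After error-prone PCR and barcoding, CPEB3 ribozyme mutant libraries were transcribed with T7 RNA polymerase at 37°C for 5 hours, then given 15 min with DNase I before an EDTA stop, and they cleaved during both steps. Reverse transcription with template switching preceded Illumina sequencing. Relative activity divides a variant's cleaved/total read fraction by the unmutated ribozyme's. At least 5 reads were required per variant, and three batches were averaged.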"}
{"variant": "U80A C81U", "self-cleavage": 1.24}
{"variant": "U74G", "self-cleavage": 1.24}
{"variant": "A77U U80A", "self-cleavage": 1.18}
{"variant": "A77U U80C", "self-cleavage": 1.18}
{"variant": "A77U U80G", "self-cleavage": 1.26}
{"variant": "A77U C81A", "self-cleavage": 1.31}
{"variant": "A77U C79A", "self-cleavage": 1.26}
{"variant": "A75U U76C", "self-cleavage": 1.29}
{"variant": "U78A C81U", "self-cleavage": 0.8}
{"variant": "U74G U78C", "self-cleavage": 1.26}
{"variant": "U74G U78A", "self-cleavage": 1.26}
{"variant": "A75G U78G", "self-cleavage": 0.62}
{"variant": "A75G U78A", "self-cleavage": 1.3}
{"variant": "A75G U78C", "self-cleavage": 0.67}
{"variant": "A77G C81A", "self-cleavage": 1.2}
{"variant": "A77C U80A", "self-cleavage": 1.05}
{"variant": "A75G U80G", "self-cleavage": 1.02}
{"variant": "A75G U80C", "self-cleavage": 0.65}
{"variant": "A75G U80A", "self-cleavage": 1.08}
{"variant": "U74C U78G", "self-cleavage": 1.17}
{"variant": "U74C U78C", "self-cleavage": 1.3}
{"variant": "U74C U78A", "self-cleavage": 1.29}
{"variant": "U76A U80A", "self-cleavage": 1.17}
{"variant": "U76A U80C", "self-cleavage": 1.23}
{"variant": "A75C", "self-cleavage": 1.2}
{"variant": "A75U", "self-cleavage": 1.15}
{"variant": "A75G", "self-cleavage": 1.01}
{"variant": "U74G U76C", "self-cleavage": 1.16}
{"variant": "U80G C81U", "self-cleavage": 1.39}
{"variant": "U78A", "self-cleavage": 1.12}
{"variant": "U78C", "self-cleavage": 1.02}
{"variant": "U78G", "self-cleavage": 1.1}
{"variant": "U76G C81A", "self-cleavage": 1.14}
{"variant": "U78C C81A", "self-cleavage": 1.21}
{"variant": "U78C C81G", "self-cleavage": 1.25}
{"variant": "U78C C81U", "self-cleavage": 1.15}
{"variant": "A75C U76G", "self-cleavage": 1.25}
{"variant": "A75U U78C", "self-cleavage": 1.15}
{"variant": "A75U U78A", "self-cleavage": 1.11}
{"variant": "U76C C81A", "self-cleavage": 1.24}
{"variant": "A75U U80G", "self-cleavage": 1.26}
{"variant": "A75U U80A", "self-cleavage": 1.25}
{"variant": "A75U U80C", "self-cleavage": 1.1}
{"variant": "C79G U80C", "self-cleavage": 0.27}
{"variant": "A77G U80G", "self-cleavage": 1.21}
{"variant": "A77G U80C", "self-cleavage": 1.12}
{"variant": "A77G U80A", "self-cleavage": 1.18}
{"variant": "U76C U78A", "self-cleavage": 1.19}
{"variant": "U76C U78C", "self-cleavage": 1.01}
{"variant": "U80G", "self-cleavage": 1.18}
{"variant": "U80C", "self-cleavage": 1.08}
{"variant": "U80A", "self-cleavage": 1.13}
{"variant": "U78A U80C", "self-cleavage": 1.07}
{"variant": "U78A U80G", "self-cleavage": 1.29}
{"variant": "U78A U80A", "self-cleavage": 1.23}
{"variant": "U78C C79G", "self-cleavage": 1.18}
{"variant": "U78C C79U", "self-cleavage": 0.84}
{"variant": "U76A C79A", "self-cleavage": 1.2}
{"variant": "U76C A77G", "self-cleavage": 1.07}
{"variant": "U76C A77U", "self-cleavage": 1.07}
{"variant": "A75C U80C", "self-cleavage": 1.18}
{"variant": "U78A C79U", "self-cleavage": 1.29}
{"variant": "A75G A77U", "self-cleavage": 1.05}
{"variant": "A75G A77G", "self-cleavage": 0.57}
{"variant": "A75G C81U", "self-cleavage": 1.18}
{"variant": "A75G C81A", "self-cleavage": 1.04}
{"variant": "A77U U78A", "self-cleavage": 0.9}
{"variant": "A77U U78C", "self-cleavage": 1.05}
{"variant": "C81U", "self-cleavage": 1.18}
{"variant": "C81A", "self-cleavage": 1.05}
{"variant": "C81G", "self-cleavage": 1.14}
{"variant": "C79G", "self-cleavage": 1.13}
{"variant": "C79A", "self-cleavage": 1.19}
{"variant": "C79U", "self-cleavage": 1.17}
{"variant": "A77G U78G", "self-cleavage": 0.9}
{"variant": "A77G U78A", "self-cleavage": 1.17}
{"variant": "A77G U78C", "self-cleavage": 0.82}
{"variant": "U76A U78C", "self-cleavage": 1.1}
{"variant": "U76A U78G", "self-cleavage": 1.37}
{"variant": "U76A U78A", "self-cleavage": 1.09}
{"variant": "A75G C79U", "self-cleavage": 1.18}
{"variant": "U76A A77G", "self-cleavage": 1.01}
{"variant": "U76A A77U", "self-cleavage": 1.01}
{"variant": "U76C U80G", "self-cleavage": 1.24}
{"variant": "U76C U80C", "self-cleavage": 1.13}
{"variant": "U76C U80A", "self-cleavage": 1.26}
{"variant": "U74G A75G", "self-cleavage": 1.26}
{"variant": "U74G A75U", "self-cleavage": 1.29}
{"variant": "U74C U76C", "self-cleavage": 1.2}
{"variant": "U74C U76A", "self-cleavage": 1.3}
{"variant": "U76C", "self-cleavage": 1.1}
{"variant": "U76A", "self-cleavage": 1.14}
{"variant": "U76G", "self-cleavage": 0.9}
{"variant": "U74C U80A", "self-cleavage": 1.28}
{"variant": "U74C U80C", "self-cleavage": 1.24}
{"variant": "U80C C81U", "self-cleavage": 1.01}
{"variant": "U80C C81A", "self-cleavage": 1.23}
{"variant": "U76C C79G", "self-cleavage": 1.22}
{"variant": "A75G U76G", "self-cleavage": 0.43}
{"variant": "A75G U76C", "self-cleavage": 0.94}
{"variant": "A75G U76A", "self-cleavage": 1.05}
{"variant": "A75C U78C", "self-cleavage": 1.15}
{"variant": "U78C U80C", "self-cleavage": 0.82}
{"variant": "U78C U80G", "self-cleavage": 1.15}
{"variant": "U78C U80A", "self-cleavage": 1.2}
{"variant": "U78G U80C", "self-cleavage": 0.94}
{"variant": "A77C", "self-cleavage": 0.98}
{"variant": "A77G", "self-cleavage": 1.06}
{"variant": "A77U", "self-cleavage": 1.11}
{"variant": "C79A U80C", "self-cleavage": 1.23}
{"variant": "A75U A77U", "self-cleavage": 1.2}
{"variant": "A75U A77G", "self-cleavage": 1.18}
{"variant": "U76G A77U", "self-cleavage": 0.75}
{"variant": "C79U U80A", "self-cleavage": 1.24}
